Test results reported in patent US20180009867A1.

molecular target: IL-1 receptor; experiment: SPR, immobilized IL-1 receptor

Going from “mutant chicken interleukin-1β protein having E118K mutation (ligand)” to “mutant chicken interleukin-1β protein having T117A mutation (ligand)”, the Kd falls from 0.37 nM to 0.23 nM (1.6-fold).

In the case of “wild-type chicken interleukin-1β (ligand)”, the Kd is reported as 0.12 nM.
